The source of these data is publication doi:10.1101/2024.10.07.617049 (bioRxiv, 2024).

In experiment [1] the target is T1, selinexor-conjugated XPO1 (human, UniProt O14980 1-1071, Cys528 covalently conjugated to selinexor (KPT-330)). Nature of the experiment: cryo-EM structure.
In experiment [2] the target is KPT-UTSW1-conjugated XPO1 (human, UniProt O14980 1-1071). Nature of the experiment: cryo-EM structure.
The target of a further experiment is KPT-185-conjugated XPO1 (human, UniProt O14980 1-1071, Cys528 covalently conjugated to KPT-185). Nature of the experiment: cryo-EM structure.
Another experiment concerns the target KPT-127-conjugated XPO1 (human, UniProt O14980 1-1071, Cys528 covalently conjugated to KPT-127). Nature of the experiment: cryo-EM structure.
For experiment [3], the target named is T1, selinexor-conjugated XPO1. Nature of the experiment: ITC.
The target of experiment [4] is exportin 1 (XPO1), unliganded (human, UniProt O14980 1-1071). Nature of the experiment: ITC.

Where a chain is given by its changes, count along the chain named. Numbers in names are those of the source.

T1 sequence (O14980 whole entry): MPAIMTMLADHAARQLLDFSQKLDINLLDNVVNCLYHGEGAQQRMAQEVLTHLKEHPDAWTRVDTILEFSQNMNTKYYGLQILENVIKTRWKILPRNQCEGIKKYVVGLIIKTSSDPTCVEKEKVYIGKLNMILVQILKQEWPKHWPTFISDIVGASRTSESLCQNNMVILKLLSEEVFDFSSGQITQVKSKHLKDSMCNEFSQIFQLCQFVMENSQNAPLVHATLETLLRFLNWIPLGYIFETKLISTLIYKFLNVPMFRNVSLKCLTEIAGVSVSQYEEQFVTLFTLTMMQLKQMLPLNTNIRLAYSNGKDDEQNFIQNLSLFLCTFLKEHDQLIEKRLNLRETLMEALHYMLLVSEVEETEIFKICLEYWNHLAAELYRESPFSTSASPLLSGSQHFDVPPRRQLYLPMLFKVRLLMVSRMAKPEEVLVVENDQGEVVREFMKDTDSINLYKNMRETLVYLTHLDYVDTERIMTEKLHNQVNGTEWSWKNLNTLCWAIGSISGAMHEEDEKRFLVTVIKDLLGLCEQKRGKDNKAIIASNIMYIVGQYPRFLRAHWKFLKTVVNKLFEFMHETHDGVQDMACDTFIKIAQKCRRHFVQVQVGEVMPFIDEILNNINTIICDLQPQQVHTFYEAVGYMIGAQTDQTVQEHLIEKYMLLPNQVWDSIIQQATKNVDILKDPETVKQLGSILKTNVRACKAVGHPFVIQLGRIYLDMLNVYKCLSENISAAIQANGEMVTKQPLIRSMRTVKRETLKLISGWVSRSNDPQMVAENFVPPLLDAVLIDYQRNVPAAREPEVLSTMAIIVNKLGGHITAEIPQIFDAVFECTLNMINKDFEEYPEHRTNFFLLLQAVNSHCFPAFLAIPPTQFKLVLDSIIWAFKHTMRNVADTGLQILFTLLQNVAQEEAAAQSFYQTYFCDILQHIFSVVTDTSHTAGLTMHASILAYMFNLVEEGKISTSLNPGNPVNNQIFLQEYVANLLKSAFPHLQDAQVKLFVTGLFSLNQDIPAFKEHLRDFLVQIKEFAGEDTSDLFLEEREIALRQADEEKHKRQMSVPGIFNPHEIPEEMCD
exportin 1 (XPO1), unliganded, sequence (O14980 whole entry): as above
KPT-127-conjugated XPO1, sequence (O14980 whole entry): as above
KPT-185-conjugated XPO1, sequence (O14980 whole entry): as above
KPT-UTSW1-conjugated XPO1, sequence (O14980 whole entry): as above

B1: ASB8^ΔN16 (domain or fragment)
chain: SLSERLIRTIAAIRSFPHDNVEDLIRGGADVNCTHGTLKPLHCACMVSDADCVELLLEKGAEVNALDGYNRTALHYAAEKDEACVEVLLEYGANPNALDGNRDTPLHWAAFKNNAECVRALLESGASVNALDYNNDTPLSWAAMKGNLESVSILLDYGAEVRVINLIGQTPISRLVALLVRGLGTEKEDSCFELLHRAVGHFELRKNGTMPREVARDPQLCEKLTVLCSAPGTLKTLARYAVRRSLGLQYLPDAVKGLPLPASLKEYLLLLE
As for B1, the binding result (in experiment [1]; in experiment [2]; in the experiment with KPT-185-conjugated XPO1; with KPT-127-conjugated XPO1) was “binds” each time.

B2: ASB8^ΔN16•ELOB/C (complex)
chain 1: B1 chain
chain 2: […]
chain 3: […]
As usually defined, the Kd is the equilibrium constant for the complex coming apart. For B2, the Kd amounted to 29 nM in experiment [3] and 11000 nM in experiment [4].

B3: ASB8^ΔN16/R197A•ELOB/C (complex)
chain 1: B1 chain with R181A
chain 2: […]
chain 3: […]
In the case of B3, in experiment [3], binding was characterised by a dissociation constant (Kd) of 58 nM.

B4: ASB8^ΔN16/R197A (domain or fragment)
chain: B1 chain with R181A
As to B4, in experiment [1], the binding result is listed as “binds”.
